We go through 132 substances from the supplement of paper PMC12042874.

± gives the uncertainty stated by the source.

The nature of the data set: amyloid nucleation score (Sup35N fusion, yeast selection) (log enrichment); library NNK3; higher = more nucleation; inactive = no reads after selection. The method in brief: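 Libraries of peptides of 20 random codons fused to Sup35N were expressed in psi-negative yeast and induced 24 hours with 100 μM copper sulfate. Selection was 7 days at 30°C on medium lacking adenine and uracil, and plasmid inserts were Illumina-sequenced before and after selection. Nucleation score is the DiMSum log enrichment of output over input reads, centred on the mode score of non-aggregating sequences, and sequences with under 100 input reads were left out.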
Consider CENYRMGYRNVRVSFAPPFK, for which the amyloid nucleation score entry was “inactive”.

Take CEWNERRRDGSSRNFDLLSQ: the amyloid nucleation score is -0.045 ± 1.1. To CFCYSLDSLLQVGNNS belongs “inactive”; to CFETCLSAVGHSIQAQKLSG, 0.193 ± 0.29. On to CFIMLWCTISFIILVSLVTD, for which the amyloid nucleation score turned out to be 0.671 ± 0.3. Take CFKFWWGIRENFKFLGDVMR: the amyloid nucleation score entry was “inactive”. To CFKSIITMNFYINWYFVSSP belongs “inactive”.

In the case of CFLGVSNMHIGWFGVR, the amyloid nucleation score came out at 0.838 ± 0.12. CFLSWWLRDLVLSSCSTYVD: the amyloid nucleation score entry was “inactive”.

As for CFMLSDGHTCFVLMSGWFSS, the amyloid nucleation score entry is “inactive”. On to CFMTS, for which the amyloid nucleation score entry is “inactive”. Next, CFNRITDC: “inactive”; CFPASCIQ: “inactive”.

Turning to CFYLDQSRFRSA, the amyloid nucleation score result is “inactive”.

As for CFYMTSSDYQEGNG, the amyloid nucleation score entry was “inactive”. Next, CFYVSLCGV: 0.259 ± 0.49. To CGCYSLMFFSMTCNEKLLSL belongs “inactive”. As for CGFAHFRNVALGWWYGVTLN, the amyloid nucleation score result is “inactive”.

In the case of CGGAMMKN, the amyloid nucleation score result is “inactive”. Consider CGMCLGLLHR, for which the amyloid nucleation score is 0.898 ± 0.21. CGPHTSYRTMIVLNIRYNFY yielded an amyloid nucleation score of 1.46 ± 0.099. Next, CGRRYGTGAPRCL: “inactive”; CHEKANQELRHPYGCECVFV: “inactive”; CHFIRGESSRTKLGLEHTN: “inactive”.

In the case of CHISFWLTLWGRSNSEMWMD, the amyloid nucleation score entry was “inactive”. To CHSFIMIYVVMMDIS belongs 0.103 ± 0.55; to CHSRTDKNSFC, “inactive”. For CHWNYTKIRHFYEVVGDQTG, the amyloid nucleation score entry was “inactive”. To CHYNFPVPAVKILRGQRNVA belongs “inactive”; to CIAMGTISFQFPVLMRYYLC, “inactive”. As for CILYLHIAALVLLI, the amyloid nucleation score is -1.33 ± 2.5.

The substance CINVFMQEPPPINIRWNCRE registered an amyloid nucleation score of 2.54 ± 0.061.

Take CITSNVMRSSRLKLV: the amyloid nucleation score result was “inactive”.

As for CKCYYGTSDFCGVGFETASR, the amyloid nucleation score entry was “inactive”. Next, CKFCFSAIFSLLYNRIGAPQ: “inactive”; CKKGRLVGRSRCLVCWMCCM: -0.155 ± 0.96.

CKLCTFSKRLNLTFRMVASL: the amyloid nucleation score entry was “inactive”. Next, CKMLNYFLCT: 1.1 ± 0.13; CKYLPLRNYGSCSPGYGKYV: “inactive”; CLFFKHLLLGDDVLLLTYLR: “inactive”.

As for CLFGLGVEAKVFIYQGDDQS, the amyloid nucleation score result is “inactive”. For CLFQIIVNTSYIGKFHTVLG, the amyloid nucleation score stood at 1.88 ± 0.057. Turning to CLFYIRS, the amyloid nucleation score result was “inactive”. Consider CLGIGWFWVPWRLGVYSQMV, for which the amyloid nucleation score result was “inactive”. Consider CLHEDCRMTADSLPSLRKDR, for which the amyloid nucleation score entry is “inactive”. Next, CLLPFTTGYDFFLHQIEGWG: “inactive”. Next, CLLPVSVTLTASFLCQHVRY: 0.004 ± 0.75. Consider CLLVRTIMRVLYFWMES, for which the amyloid nucleation score entry was “inactive”. Regarding CLNNVLLASPPNCAGNL, the amyloid nucleation score result was “inactive”. Next, CLRSVDDWFKC: “inactive”; CLSLYL: “inactive”; CLTIHWTVFSGAARLSFIMT: “inactive”. For the substance CLVNWPMWENPWSPHFGSNY, the amyloid nucleation score result was “inactive”. Consider CLVSTGYHVRCVIVFMTTQG, for which the amyloid nucleation score result was “inactive”. Take CLYRGGFSFYDFSGFCVLSS: the amyloid nucleation score result is “inactive”. To CMGYRFC belongs “inactive”.

Regarding CMIELRSR, the amyloid nucleation score entry was “inactive”. Consider CMLNRNFWVVYSHVGRRRL, for which the amyloid nucleation score result was “inactive”.

For the substance CMLSMFSCCCFDSPRRYCH, the amyloid nucleation score worked out at 2.36 ± 0.051. Take CMSDF: the amyloid nucleation score result was “inactive”. To CMSRYVDSYFNLAYRDRFLW belongs 0.451 ± 0.47. Next, CMSTKTNFT: “inactive”; CNAYLAYARYIYTHGWPRSL: “inactive”; CNFDKTLRSHDDQLAVGITV: “inactive”. To CNFERFALCDYLSVLFNFQR belongs 1.54 ± 0.13; to CNGLFIGPML, “inactive”.

On to CNGLNRIVDLNWNMMSIMRS, for which the amyloid nucleation score result is “inactive”.

In the case of CNKYMKVCLGMGKVQTKNGV, the amyloid nucleation score entry was “inactive”. To CNVLEKYTLE belongs “inactive”. Next, CNVNTLIFGRESNSSEHKHW: 1.83 ± 0.081; CNVTLSSTYEK: “inactive”. Turning to CNYSVVFCCNFWDYYLKECA, the amyloid nucleation score is 2.5 ± 0.06. To CPRDNVSIVKWWLAYRDSHA belongs “inactive”; to CQIEILLPLDVLY, 1.06 ± 0.09; to CQLRGEFDSVAVNNVCIAML, “inactive”. Next, CQRPWNRTRR: “inactive”; CQVGRKRLLYVFTGYK: “inactive”; CQVWFTYYYLLGSTNDSMAR: “inactive”. Regarding CRCMTR, the amyloid nucleation score entry is “inactive”. Next, CRCPSYMFHA: 0.703 ± 0.17; CRFKGCWYSRTLRRRRSVIV: “inactive”; CRFSGCNESLGWKVGSTLVM: “inactive”. For the substance CRGTWDNDAVGRVDRNSRKS, the amyloid nucleation score result was “inactive”. Take CRIYCLLPISMIGSCSFIVH: the amyloid nucleation score result was “inactive”.

Take CRLANHLEIAVAVTSYEGED: the amyloid nucleation score entry was “inactive”. To CRNESLACSKMSPSQRRSYT belongs “inactive”; to CRTQMPSIFDL, “inactive”; to CRVEVAICHRPLCSKVTLDG, “inactive”. Next, CSGIIRNMLWGV: “inactive”. To CSGQVQ belongs “inactive”; to CSIPFVWEIHHM, “inactive”; to CSKNRQSELRALGSYI, “inactive”. As for CSLQNVTVGLLHSQVVSRWE, the amyloid nucleation score entry is “inactive”. Turning to CSLTCWSVVRVFQYEILRE, the amyloid nucleation score entry was “inactive”. To CSLTKAVFQRQPLRRSKGTK belongs “inactive”; to CSLYNLDRVTWTG, 0.219 ± 0.41; to CSPGTSCFGIKPRSSLSTTI, “inactive”. To CSRLAQWFMLVSF belongs “inactive”. Next, CSRWMWPENYRFSSEVPWYI: “inactive”. On to CSTISVTLALV, for which the amyloid nucleation score entry is “inactive”. Turning to CSWVGAMFVQWNLPAPTEGI, the amyloid nucleation score was 0.341 ± 0.37.

Turning to CTDRRVRWGYGFKFRFGHGD, the amyloid nucleation score entry is “inactive”.

As to CTLQYWGKIIPNERSRSRIV, the amyloid nucleation score entry was “inactive”. Next, CTLRTVCHTGLLWVTFHRQY: 0.675 ± 0.18; CTSCILYFLLIYYHYNSS: “inactive”. For the substance CTSTLMEFSFSYEWSNGCCS, the amyloid nucleation score entry was “inactive”.

CTVLKYFLRYRRSHDL: the amyloid nucleation score entry was “inactive”.

As to CVAAV, the amyloid nucleation score result was “inactive”. For the substance CVAKK, the amyloid nucleation score result is “inactive”. Next, CVEAEDNFVLLKEGHAAWDV: “inactive”; CVEVY: “inactive”; CVFKTNVNGLMEEVLSGFKY: “inactive”.

For CVFPCMFLEFTMTDMKLYSS, the amyloid nucleation score entry was “inactive”.

As to CVGVCKNLNRWFH, the amyloid nucleation score result was “inactive”.

Regarding CVLWYCCYTQLSMQKCNSRM, the amyloid nucleation score result is “inactive”. For the substance CVNKFLSVPSIDSEDFCYLV, the amyloid nucleation score result was “inactive”. With CVPWWLNMPVLDCTLWNSSV, the amyloid nucleation score entry is “inactive”.

The substance CVTVNIELLTWITACGNFTL registered an amyloid nucleation score of 1.62 ± 0.075.

In turn, CVVGDPSGVK gave an amyloid nucleation score of 0.62 ± 0.13. To CVWAYLRLHGKWAF belongs 0.598 ± 0.34. Take CVWILSQLG: the amyloid nucleation score is -0.797 ± 1.9. To CWWCCATGTHSSSYIGRGVH belongs 0.844 ± 0.24. For the substance CYDDRHENHHYGE, the amyloid nucleation score result was “inactive”.

For CYEPVAGVFCMRIGLTVVGN, the amyloid nucleation score result is “inactive”. To CYFRVAHVLDSRILSRPGML belongs “inactive”; to CYIVGVVGLSTDWFMSGHSD, 0.035 ± 0.9; to CYMADNVLVGFTFVGIQEMK, “inactive”. To CYSVDRDV belongs “inactive”.

Regarding CYYTKVNVSS, the amyloid nucleation score is 0.021 ± 0.26. To DAGELNILI belongs “inactive”; to DAHNRASLSYVPSYYVSFTA, “inactive”. Next, DAIRQTSHMKLRSSYMQARR: “inactive”.
